The results in this text go back to patent US20050266009A1 (SAVIENT PHARMACEUTICALS, published 2005).

Substitutions are numbered along the chain they refer to.

The target in one test is T1, GPIb on human platelets (human, UniProt P07359 17-652).
T1 construct: whole, on cells; also called GPIbα; platelet GPIb
In words: FACS on human platelets.

Test [1] has as its target T2, GPIb on guinea pig platelets (guinea pig).
T2 construct: whole, on cells; also called guinea pig derived platelets
The experiment in a line: FACS on guinea pig platelets.

T1 sequence (P07359 17-652): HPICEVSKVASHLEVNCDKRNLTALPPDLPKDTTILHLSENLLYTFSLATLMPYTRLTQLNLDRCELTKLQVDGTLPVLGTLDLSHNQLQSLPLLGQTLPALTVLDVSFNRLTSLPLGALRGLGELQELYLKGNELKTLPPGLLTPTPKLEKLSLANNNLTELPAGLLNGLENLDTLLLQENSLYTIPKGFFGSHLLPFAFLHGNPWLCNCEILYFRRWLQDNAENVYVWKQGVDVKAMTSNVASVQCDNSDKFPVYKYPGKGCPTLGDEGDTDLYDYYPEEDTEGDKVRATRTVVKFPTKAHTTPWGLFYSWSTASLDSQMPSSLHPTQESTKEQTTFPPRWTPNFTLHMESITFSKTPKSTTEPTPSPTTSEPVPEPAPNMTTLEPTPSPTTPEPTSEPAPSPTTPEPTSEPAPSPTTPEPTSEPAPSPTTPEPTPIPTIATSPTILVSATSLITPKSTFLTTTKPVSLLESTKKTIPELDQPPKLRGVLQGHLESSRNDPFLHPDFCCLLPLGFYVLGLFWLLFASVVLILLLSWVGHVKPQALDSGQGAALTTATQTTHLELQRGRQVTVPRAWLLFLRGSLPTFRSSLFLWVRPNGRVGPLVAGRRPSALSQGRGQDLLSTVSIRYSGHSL

B1: S1 scFv (scFv)
chain: EVQLVESGGGVVRPGGSLRLSCAASGFTFDLNPKVKHMWVRQAPGKGLEWVSGINWNGGSTGYADSVKGRFTISRDNAKNSLYLQMNSLRAEDTAVYYCARLRPPFLWGQGTLVTVSRGGGGSGGGGSGGGGSSELTQDPAVSVALGQTVRITCQGDSLRSYYASWYQQKPGQAPVLVIYGKNNRPSGIPDRFSGSSSGNTASLTITGAQAEDEADYYCNSRDSSGNHVVFGGGTKLTVLGAAAEQKLISEEDLNGAA
In the case of B1, in the test with GPIb on human platelets, the “fold binding capacity relative to Y1” value is around 25 fold.

B2: D1 scFv (scFv)
scFv: B1 chain with P104S, L107G
For B2, in test [1], the “fold binding capacity relative to Y1” value is around 25 fold.
